This is an account of results in article PMC9477884 (Communications Biology, 2022).

Data set [1] concerns the molecule itself. Kind of data set: SEC-MALS; MazE6 in solution; observed mol. wt. 17 kDa.
In data set [2] the target is T1, MazE6 (UniProt P9WJ87 1-82).
T1 sequence: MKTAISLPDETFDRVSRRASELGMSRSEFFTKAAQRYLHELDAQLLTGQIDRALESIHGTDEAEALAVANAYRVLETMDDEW
Description: gel filtration. Particulars: protein: recombinant; chain copies: 2; blunt.

B1: MazE6 antitoxin (residue 1-82) (natural protein)
chain: T1 sequence
Regarding B1, the “stoichiometry N” value in data set [1] was 2.

B2: mazEF6 operator DNA (dsDNA)
DNA 1: CCGGTTATACTATCTGTA
DNA 2: TACAGATAGTATAACCGG
In the case of B2, in data set [2], the binding result is given as “binds”.
